The source of these data is patent US20070149763A1 (Bristol-Myers Squibb, published 2007).

A word on the Kd: it is the concentration at which binding is half-saturated.

Assay [1] deals with BACE (recombinant human BACE catalytic domain, expressed in CHO cells as BACE-T-IgG, IgG1 removed with thrombin) (human) (UniProt P56817). The assay is described as follows: binding assay without UV light (fluorescence anisotropy); absence of UV light. (Polarisation of emitted light reports the rotation of a fluorescent probe.)
Sequence of BACE (recombinant human BACE catalytic domain, expressed in CHO cells as BACE-T-IgG, IgG1 removed with thrombin) (human) (P56817 43-460 limits assumed, form in doubt): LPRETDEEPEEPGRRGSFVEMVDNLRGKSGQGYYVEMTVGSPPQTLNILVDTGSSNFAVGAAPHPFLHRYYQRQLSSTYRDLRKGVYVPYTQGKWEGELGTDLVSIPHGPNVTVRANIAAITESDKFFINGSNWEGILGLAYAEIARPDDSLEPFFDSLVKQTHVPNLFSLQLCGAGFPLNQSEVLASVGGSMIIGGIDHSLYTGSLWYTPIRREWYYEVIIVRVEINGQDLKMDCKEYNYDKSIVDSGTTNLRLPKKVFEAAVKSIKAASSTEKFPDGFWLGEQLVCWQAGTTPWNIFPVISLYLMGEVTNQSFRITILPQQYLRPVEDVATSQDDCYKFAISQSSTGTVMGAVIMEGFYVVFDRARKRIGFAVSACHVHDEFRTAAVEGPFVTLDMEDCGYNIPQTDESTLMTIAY
Assay [2] has the same target. The assay is described as follows: ITC, Dulbecco's PBS, pH 7.1, 25° C. (In general: ITC needs no label: the signal is the heat of the interaction.)
Assay [3] shares this target. Description: fluorescence anisotropy competition against 10 nM Molecule X on BACE, pH 7.1, upper panel.
For assay [4] the target is unchanged. Description: fluorescence anisotropy competition against Molecule X, pH 4.5.
For assay [5] the target is unchanged. The assay is described as follows: fluorescence anisotropy competition against Molecule X, pH 7.1.
Assay [6] has the same target. The assay is described as follows: ITC, pH 5.3, 37° C., peptide titrated into CHO BACE.
The target is the same in assay [7]. Description: fluorescence anisotropy competition against Molecule X on BACE, pH 7.1, upper panel; labelled 'Ka' on the sheet without a unit, it is the dissociation constant of the competing ligand, nM from the axis and the lower table; error 33.456; the text prints it rounded (84 nM).
For assay [8] the target is unchanged. Description: ITC, 25° C., Dulbecco's PBS.
For assay [9] the target is unchanged. Description: fluorescence anisotropy competition against Molecule X on BACE, pH 4.5, lower panel; labelled 'Ka(nM)' on the sheet, it is the dissociation constant of the competing ligand; error 337.16; the text prints it rounded (1073 nM).
Assay [10] has the same target. The assay is described as follows: ITC, pH 5.3, 37° C., peptide titrated into CHO BACE pre-incubated with a 10-fold excess of OM99-2.
For assay [11] the target is unchanged. The assay is described as follows: cell-based or functional assay.
Assay [12] shares this target. Description: fluorescence anisotropy binding assay.
Assay [13] shares this target. The assay is described as follows: fluorescence anisotropy binding assay, pH 4.5.
For assay [14] the target is unchanged. Description: fluorescence anisotropy, BACE titrated into 10 nM labeled peptide, pH 4.5, 1:1 model.
Assay [15] has the same target. The assay is described as follows: fluorescence anisotropy, BACE titrated into 10 nM labeled peptide, pH 7.1, 1:1 model.
Assay [16] shares this target. Description: fluorescence anisotropy, pH 4.5 (value quoted for the labeled EBP used in the truncation screen).
Assay [17] has the same target. Description: ITC, Dulbecco's PBS, pH 7.0, 25° C.
For assay [18] the target is unchanged. The assay is described as follows: ITC, 50 mM NaOAc, pH 4.5, 25° C.
For assay [19] the target is unchanged. Description: ITC, 25° C., 50 mM NaOAc, pH 4.5.
The target is the same in assay [20]. Description: fluorescence anisotropy, BACE titrated into 10 nM Molecule Y1 in the presence of 10 µM OM99-2, fit to 1:1 binding (error 1.5032); this table prints 'Kd' without a unit, nM is taken from the concentration axis and the -OM99-2 table.
Assay [21] has the same target. The assay is described as follows: fluorescence anisotropy binding assay, pH 4.5; comparison of label positions (X, Y1, Z).
Assay [22] shares this target. Description: fluorescence anisotropy, BACE titrated into 10 nM Molecule Y1 with 10 µM OM99-2; reference: without OM99-2.
Assay [23] shares this target. The assay is described as follows: fluorescence anisotropy, BACE titrated into 10 nM Molecule Y1, no OM99-2, fit to 1:1 binding (error 2.1556); the text prints this value rounded (57 / 58 nM).
Assay [24] has as its target T1, BACE-1 (T7-BACE1(A14-T454)) (Homo sapiens (Human), UniProt P56817 14-454).
T1 construct: BACE dimer in the asymmetric unit; also called Construct #1
Description: X-ray crystallography, peptide soaked into BACE-1/DPH-153979 co-crystal. How it is done:
Crystals appeared overnight and grew to their final dimensions (0.4×0.3×0.2 mm) in about two weeks.
Data were collected at 100° K using a Rigaku R-axis II system mounted on a RU-200 rotating anode generator and processed using HKL2000 (Otwinowski et. al., (1997) Methods in Enzymology, Macromolecular Crystallography, Part A; C. W. Carter, Jr. and R. M. Sweet, Eds.; Academic Press: New York, 276:307-326) (Table 6). The structure was determined by molecular replacement using the program EPMR (Kissinger et. al. (1999) Acta Crystallog. Sect. D, 55:484-491) in space group P2₁ with one BACE dimer per asymmetric unit. The starting model used was a BACE dimer (without inhibitor) from a previously determined structure. […] The active site inhibitor DPH-153979 was built into the electron density using the program QUANTA (Accelrys Software, Inc.) and refinement was carried out using the program CNX (Accelrys Software, Inc.). […] Refinement was not carried out past initial building of YPYFI due to ambiguous exosite peptide density.

In assay [25] the target is BACE (recombinant human BACE catalytic domain, expressed in CHO cells as BACE-T-IgG, IgG1 removed with thrombin) (human) (UniProt P56817). The assay is described as follows: fluorescence anisotropy competition against 10 nM Molecule Y1 on BACE, pH 4.5.
For assay [26] the target is unchanged. The assay is described as follows: fluorescence anisotropy competition against Molecule Y1 on BACE, pH 4.5; labelled 'Ka(nM)' on the sheet, it is the dissociation constant of the competing ligand; error 102.58; the text prints 1197 nM.
Assay [27] has the same target. The assay is described as follows: fluorescence anisotropy competition against Molecule Y1, pH 4.5.

Where no end group is shown, it is not given here. Alexa488 = Alexa488 fluorophore label

T1 sequence (P56817 other isoform, or with tags, fused parts or gaps limits assumed): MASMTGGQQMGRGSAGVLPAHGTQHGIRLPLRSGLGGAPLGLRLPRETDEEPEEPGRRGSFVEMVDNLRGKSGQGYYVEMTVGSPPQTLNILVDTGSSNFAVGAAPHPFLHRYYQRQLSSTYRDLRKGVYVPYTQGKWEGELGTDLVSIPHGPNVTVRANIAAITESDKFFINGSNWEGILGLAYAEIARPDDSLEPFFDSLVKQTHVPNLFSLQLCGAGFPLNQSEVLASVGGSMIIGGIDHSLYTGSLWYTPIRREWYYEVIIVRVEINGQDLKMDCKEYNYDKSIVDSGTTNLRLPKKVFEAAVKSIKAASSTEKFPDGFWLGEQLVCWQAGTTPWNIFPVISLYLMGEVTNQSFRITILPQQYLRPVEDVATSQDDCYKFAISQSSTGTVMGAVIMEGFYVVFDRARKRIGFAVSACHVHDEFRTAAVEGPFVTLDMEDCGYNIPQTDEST

In the case of YPYFIPB-Alexa488 (peptide), the Kd in assay [1] amounted to 100 nM.
On to YPBFIPL-Alexa488 (peptide), for which, in assay [1], the Kd came out at 100 nM.
Turning to Ac-NLTTYPYFIPLP-NH2, the Kd in assay [2] turned out to be 61 nM; in assay [4] it was 1070 nM; in assay [5], 84 nM; in assay [6] it was 380 nM; in assay [7] it was 84.2 nM; in assay [9], 1070 nM. Moreover, in assay [10], the Kd turned out to be 280 nM. The IC50 (read off the curve) in assay [3] was determined as 500 nM. For the same molecule, the Stoichiometry (mole:mole) in [6] is 0.93 mole:mole; in assay [10] it was 0.96 mole:mole. Further, the T(dS) is -6.8 kcal/mol in [6] and -5.7 kcal/mol in assay [10]. Besides, the ΔG was -9.1 kcal/mol in assay [6] and -9.3 kcal/mol in [10]. Also, the values for the ΔH in [6], in assay [8] and in assay [10] were -15.9 kcal/mol, -12.9 kcal/mol and -15 kcal/mol, respectively. In [8], the Ka is 1.65e+07 M⁻¹. In [8], the n (stoichiometry) came out at 1.03.
Take YPYFIPL (not fully specified (N-terminus, C-terminus)) [Molecule Y3]: in [11], the IC50, inhibition of the proteolytic activity of BACE (cleavage of MCA-…(-dnp)-COOH, HPLC) stood at 731 nM. In addition, the Kd in [12] turned out to be 48 nM.
Regarding NLTTYPYFIPLP (also: Alexa488 label, position shown only) [Molecule X (… labeled with Alexa488)], the Kd in assay [13] is 903 nM; in [14] it was 904 nM; in [15], 139 nM; in [16], 1000 nM.
For the molecule Ac-HWPFFIRS-NH2 [BMS-655507 (Ac-His-Trp-Pro-Phe-Phe-Ile-Arg-Ser)], in [17], the Kd amounted to 914 nM, the Stoichiometry was 0.71, the TΔS was -9.81 kcal/mol and the ΔG is -8.23 kcal/mol. The ΔH in assay [17] is -18 kcal/mol. Besides, in assay [18], the Kd amounted to 1640 nM, the Stoichiometry was found to be 0.86, the TΔS is -5.46 kcal/mol and the ΔG is -7.9 kcal/mol. Besides, the ΔH in [18] is -13.3 kcal/mol. Further, the Ka in assay [8] came out at 1.09e+06 M⁻¹. Also, the Ka in assay [19] was found to be 610000 M⁻¹.
Consider YPYFIPL (not fully specified (N-terminus, C-terminus)) [Molecule Y2], for which, in assay [12], the Kd is 92 nM.
As to YPYFIPL (not fully specified (N-terminus, C-terminus)) [Molecule Y1 (YPYFIPL with C-terminal Alexa488)], the Kd is 9.59 nM in assay [20], 58 nM in assay [21], 57.6 nM in assay [23] and 57 nM in assay [12]. Also, the fold enhancement of affinity in the presence of 10 µM OM99-2 in assay [22] was 5 fold.
For Ac-ALYPYFLPISAK-NH2, the Kd in assay [2] was found to be 113 nM. For the same molecule, in assay [8], the Ka turned out to be 8.86e+06 M⁻¹, the n (stoichiometry) was found to be 1.06 and the ΔH is -11.8 kcal/mol.
As for YPYFIPL (not fully specified (N-terminus, C-terminus)) [Molecule Y4], the dissociation constant Kd in assay [12] is 62 nM.
Turning to YPYFIPL-Alexa488 [BMS-597041 (YPYFIPL-Alexa488 Fluorophore)], the binding result in [24] is recorded as “binds”.
In the case of Ac-YPYFIPL-NH2, in assay [25], the IC50 (read off the curve) amounted to 3000 nM. Further, the Kd in assay [26] and in [27] was 1200 nM throughout.
